Measurements published in PMC3347997, “Identification of basepairs within Tn5 termini that are critical sfor H-NS binding to the transpososome and regulation of Tn5 transposition”.

T1: H-NS (Escherichia coli, UniProt P0ACF8 1-137)
T1 sequence: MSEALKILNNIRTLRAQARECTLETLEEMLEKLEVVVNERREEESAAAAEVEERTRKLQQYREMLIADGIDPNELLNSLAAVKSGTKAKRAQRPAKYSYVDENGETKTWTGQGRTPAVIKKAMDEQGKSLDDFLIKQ

B1: OE 53-bp transposon end (dsDNA)
DNA 1: CCCTGCAGGTCGACTGACTCTTATACACAAGTTGAGTGAGTGAGCATGCA
DNA 2: ACATGCATGCTCACTCACTCAACTTGTGTATAAGAGTCAGTCGACCTGCAGGG

Legend:
[1] = molecular target: H-NS;Tn5 transposase (Escherichia coli;Tn5) (UniProt P0ACF8+Q46731); assay: EMSA; details: 2 nM 32P-DNA, 200 nM transposase (400 nM for ME 8/9), H-NS normally 23-849 nM added simultaneously, no divalent metal, 30 min 37 C, 5% native PAGE; buffer …
H-NS = molecular target: T1, H-NS; assay: EMSA; no appreciable H-NS binding to OE DNA not associated with transposase; no divalent metal; 2 nM 32P-DNA, 200 nM transposase (400 nM for ME 8/9), H-NS normally 23-849 nM added simultaneously, no divalent metal, 30 min 37 C, 5% native PAGE; buffer, salt and pH not given (cited); details: protein: recombinant; chain copies: 2; label: 5' 32P; as printed: 3 nt 5' overhang on strand 2; described as 53 bp duplex; two copies per transpososome

H-NS;Tn5 transposase (Escherichia coli;Tn5), sequence (Q46731 whole entry, chain 2 of 2, one chain of several): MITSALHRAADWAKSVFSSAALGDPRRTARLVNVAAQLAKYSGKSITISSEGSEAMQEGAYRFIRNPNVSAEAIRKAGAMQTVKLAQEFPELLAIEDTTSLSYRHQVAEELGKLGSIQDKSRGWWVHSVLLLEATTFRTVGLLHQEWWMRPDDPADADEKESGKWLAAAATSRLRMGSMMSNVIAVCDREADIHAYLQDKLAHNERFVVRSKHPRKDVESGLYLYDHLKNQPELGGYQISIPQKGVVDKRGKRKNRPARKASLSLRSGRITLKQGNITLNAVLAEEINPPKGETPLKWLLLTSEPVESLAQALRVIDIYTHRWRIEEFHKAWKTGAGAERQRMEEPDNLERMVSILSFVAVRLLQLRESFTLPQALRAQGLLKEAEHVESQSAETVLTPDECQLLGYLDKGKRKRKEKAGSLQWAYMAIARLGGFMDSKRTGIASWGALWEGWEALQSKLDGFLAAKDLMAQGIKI

| Molecule | Kd [1] [nM] | binding result (H-NS) |
| --- | --- | --- |
| CCCTGCAGGTCGACTGACTCTTATACACAAGTTGAGTGAGTGAGCATGCA / ACATGCATGCTCACTCACTCAACTTGTGTATAAGAGTCAGTCGACCTGCAGGG [OE 53-bp transposon end] | 232 |  |
| CCCTGCAGGTCGACTGTCTCTTATACACATCTTGAGTGAGTGAGCATGCA / ACATGCATGCTCACTCACTCAAGATGTGTATAAGAGACAGTCGACCTGCAGGG [WT ME 53-bp transposon end] | 51 |  |
| B1 |  | no binding |
